The term Kd denotes the constant that tells how readily two partners part at equilibrium. Higher therefore signals a looser complex.

The values below come from patent US20250257110A1.

For the test, the target named is TAG72 antigen (tumor associated glycoprotein-72). Briefly: method not stated; scFv affinity toward TAG72 antigen.

For the substance original humanized CC49 scFv (IDEC), the equilibrium dissociation constant (Kd) turned out to be 33 nM.
